Test results reported in the supplement of paper PMC12042874.
± gives the uncertainty stated by the source.

Test: amyloid nucleation score (Sup35N fusion, yeast selection) (log enrichment); library NNK1; higher = more nucleation; inactive = no reads after selection
In short: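 The nucleation score is a DiMSum log enrichment of output over input reads, centred on the mode score of non-aggregating sequences. Sequences under 100 input reads were excluded, and reads came from Illumina sequencing of plasmid inserts. Psi-negative yeast expressing Sup35N fused to peptides of 20 random codons were induced with 100 μM copper sulfate for 24 hours and grown 7 days at 30°C on medium lacking adenine and uracil. Random libraries had three technical output replicates.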

Row | Substance | amyloid nucleation score
1 | QCSLRPVPRKDALSFLGLML | -0.363 ± 0.35
2 | IVLRDFHGLSWAWSLIVHVK | 0.039 ± 0.88
3 | APQSYVVVWFCVARKRCSWD | -0.303 ± 0.53
4 | FINAYRMFWIGYCNLFSLFL | 1.38 ± 0.52
5 | YTSTIKYLVYNN | -1.08 ± 0.94
6 | VRSPNIEYDFCRVLPTLTGE | 0.505 ± 1.4
7 | FNYHACSNFSFSPDQPSFHC | 0.553 ± 0.45
8 | TMHVMVGGYL | 1.38 ± 0.41
9 | SELWPRVDYCLATYSINSYA | -0.234 ± 0.3
10 | GDLKSILVVLFSSLCVPTLR | 1.26 ± 0.21
11 | LISGVS | inactive
12 | SYSFAWGS | 1.82 ± 0.45
13 | MNYFVMSHSNKLDASLCWRR | 1.52 ± 0.25
14 | DTSFYIMLNYITIQYNSFAG | 7.86 ± 0.054
15 | GGTSIPVVGNQGMIGYVPCD | 0.825 ± 0.43
16 | LFWCVSVNRDIKIQCDRTLF | 1.13 ± 0.51
17 | GHGWITMVTDCR | 1.87 ± 0.4
18 | MGIHIFSGRSCTIFLLPSLY | -0.582 ± 1.2
19 | ASVILIVPINLYLYVVYVWI | 3.2 ± 0.15
20 | LCTFIVWKMPICPMWWGW | 0.255 ± 0.2
21 | YYLSVNR | -0.116 ± 0.67
22 | VMPYYRRSQNHDSFNFGDVS | 0.552 ± 0.52
23 | GLDRTHYPFALNGCLLSTVS | 0.676 ± 0.55
24 | SIGVFNCNCHRNYEHRYRYM | 1.22 ± 0.15
25 | ESHVWELDLGSWSRFGWRSR | 2.62 ± 0.11

Row | Substance | amyloid nucleation score
26 | SFDGDRLNVVMAQWL | -0.357 ± 0.58
27 | HVTKMNCPLCQVKLGNYPVY | -0.546 ± 0.49
28 | HILGPLIRSMMIFSCLVSVV | 1.29 ± 0.36
29 | GFWSRSGSYQLICIYFGGYG | -0.296 ± 0.4
30 | RLVPVACNPSLNKAVENSFF | 0.056 ± 1.5
31 | SFLSCRWLVFRLMKLRYICA | 0.444 ± 1.4
32 | SMWTKKLFMFHNGI | 0.201 ± 0.56
33 | PYWLINIQEVTTD | 0.654 ± 0.48
34 | WIATC | 0.214 ± 0.29
35 | TGCRGSVMSFDMLFSYILYL | 0.205 ± 0.26
36 | SHTAVFSRAAIEMCCRDWRA | 0.537 ± 0.47
37 | MRLERTNRGSAPWTLYYNQR | 1.09 ± 0.17
38 | RRKLACCCRFSVLSSGCVQN | -0.668 ± 1.7
39 | NASYVNIKYRNRGN | 4.53 ± 0.082
40 | IFYSSFS | inactive
41 | LALMEEPLVLDNGSLDTKLS | 0.579 ± 1.1
42 | VLVFIFDSTVSI | 8.236 ± 0.046
43 | QAFGRLSLATQPLLMEPRRL | 0.868 ± 0.41
44 | RWSYA | 0.981 ± 0.58
45 | CVTLTCLLSSIV | 1.84 ± 0.12
46 | GWTCYLSVGRIRF | 1.94 ± 0.11
47 | QNPLMRNYNPRFCHCGLSAP | inactive
48 | ICICLMLSVIGSSSHVLLDW | 1.08 ± 0.72
49 | EFTRRAYYDRNAQLFHMDQC | 2.19 ± 0.18
50 | YYDSGVSPAVQSPECSTSGA | 0.186 ± 0.93

Row | Substance | amyloid nucleation score
51 | LFPSTTMLLFRLNQGGFDEI | 0.407 ± 0.58
52 | RVVVQNI | 1.18 ± 0.97
53 | IFTRLSLSFHNLGLGWKTRV | -0.248 ± 0.38
54 | VYRLEVIARK | 1.69 ± 0.33
55 | ESTGQFYSPGSWVQGWTAYM | 0.398 ± 0.66
56 | TLSLTNYELSKQSWMVLC | -0.236 ± 0.64
57 | NSAILITNIECLYNIITLFT | 6.389 ± 0.048
58 | TRLKFGGSKHESSQT | 1.18 ± 0.43
59 | DEVIF | 0.421 ± 0.52
60 | NTVQNSMG | inactive
61 | LFCHPSFYINGMWSLGGSGG | -0.578 ± 0.66
62 | NIQSDRVHIFNELVRFSRWK | 0.829 ± 0.97
63 | FFGVTYREYTWS | inactive
64 | DSNATTHVRMKVSLTGRFLR | 4.8 ± 0.056
65 | TAVTCLL | -0.175 ± 1.2
66 | GFGQAGGPSGESY | 0.722 ± 0.75
67 | RGNACVT | 0.598 ± 0.34
68 | IHEMTSWVTCRFCGVFKYIL | 2.03 ± 0.13
69 | SKFVSKNCWTARGAL | -0.166 ± 0.48
70 | SWFKSWSPKALSARIGRVYL | -0.176 ± 0.55
71 | YLIRHIENGCSTQCRSTSWV | inactive
72 | VVDSTFWEVIHRRWASAMLD | -0.657 ± 0.68
73 | YMFVMEKARTSIYLSMRNYC | -0.419 ± 0.39
74 | YTMMCGISQRQLTKRRPTLW | -0.205 ± 0.52
75 | EYFMRGLLWLI | 0.795 ± 0.39

Row | Substance | amyloid nucleation score
76 | GYACYFSSSDYCWVAPHCGL | 1.01 ± 0.14
77 | VRSGRSDATAAKYFLHLTWY | -0.465 ± 0.89
78 | VLFFKVIIYVALRMVLMEKD | -1.18 ± 1
79 | EINKLS | -1.27 ± 1.1
80 | RYVHSAQLFVNATPHRLRLV | 0.578 ± 0.34
81 | NCTKSSWYGCYT | -0.287 ± 0.35
82 | VVAGNSAKEIYKFTGADTPY | -0.751 ± 0.57
83 | NISVHDNNLFHVWNLMVDSG | 5.83 ± 0.061
84 | SFGVTFHWN | 2.36 ± 0.28
85 | FKSGRDSGMRG | -1.57 ± 1.1
86 | WSFQPGRVVFHMFERGDHCC | 0.187 ± 0.4
87 | PTIFFDYAHYQTGRVLMAL | 0.408 ± 0.35
88 | IATKGKDVVFVRCGPDPQL | 1.04 ± 0.53
89 | IWCVFIQWLCSRRVERQSCR | 4.31 ± 0.11
90 | YRVFASNCEFYSRCKYLYLL | 0.029 ± 1.6
91 | RRTWNWPTWIMRSRRREGHG | 0.368 ± 0.42
92 | RAELTSTTISTASVFGCGIM | 5.17 ± 0.07
93 | HSLAGLGIIGRCAKLVQAQS | 0.48 ± 0.25
94 | KIDGRPVHIPRFRYDNDNKV | -0.359 ± 0.47
95 | PFNQLDFTVAYYLSCAH | -0.482 ± 0.63
96 | VIQRYRSVPI | 0.604 ± 0.67
97 | SFNHYMFLYFVISGWSSPQA | 1.1 ± 0.55
98 | CQYRTTYSASFLNRS | inactive
99 | NWINNRG | 1.03 ± 0.32
100 | LVTFRGGYNVDVIMWNNVRR | 3.69 ± 0.063

Row | Substance | amyloid nucleation score
101 | KMSGTLQ | -0.115 ± 1.4
102 | SGFENRDSIPIAPCIRLLLV | -0.056 ± 0.59
103 | DLDVFYCWGAYLAEGDLVCE | 0.146 ± 0.41
104 | SVWIKSST | -0.285 ± 1.4
105 | FLNCVSLVNLLRLFRVCLMP | -0.765 ± 1.5
106 | RESVINIR | 1.28 ± 0.46
107 | PVHNRVINRILGSSLEVLEN | -0.123 ± 0.31
108 | NWGENWRLGMSSIREESGAE | -0.735 ± 2.1
109 | LVKYKKV | -0.088 ± 0.43
110 | PGRSTHDIRSGPAEYTDSVC | 0.487 ± 0.63
111 | KRTLGTRGRIQVKSCPVGEL | -0.467 ± 0.35
112 | PYLGHR | -1.55 ± 1.4
113 | DSPGSSGCKGATVHMSFTWG | 0.731 ± 0.61
114 | SCVYCMSRSNWILVWMALLQ | 0.614 ± 0.45
115 | TTSCNGLFERAKNSTNSPDI | -2.25 ± 2.4
116 | NIGMVRFFLGAN | -0.71 ± 0.61
117 | NARVILCVVFILGAMTRLGL | -0.549 ± 0.65
118 | DWQMMVYRNAFLPR | -1.32 ± 1.3
119 | ASMID | 0.002 ± 0.27
120 | MVVVLLVD | -0.438 ± 0.9
121 | WNASMQSTGWFDILIYMCPV | 3.19 ± 0.11
122 | LRTRDQSGFSAVIYSKNPRA | 0.106 ± 0.51
123 | HNGDCMITACNTGVLAGYIS | 1.88 ± 0.26
124 | TRCASC | 0.3 ± 0.65
125 | NIITIETGGRKVGTFMMYSI | inactive

Row | Substance | amyloid nucleation score
126 | WGPRSVNGTLRI | -0.488 ± 0.32
127 | FIQGLCMVFDVSYLRLS | 2.8 ± 0.15
128 | KSFACYNKDQ | 0.423 ± 0.99
129 | ELSLRSSISVGEPVRDP | 1.14 ± 0.6
130 | ALCFCWNWLLCTDKGL | 6.056 ± 0.048
131 | IWKKLITNWMAYLTLNNFAL | inactive
132 | VKIKEKFKA | -0.189 ± 0.42
133 | FCPPYLSHNNYYWLLVRVFV | 0.322 ± 0.37
134 | INGFYCCRV | 0.787 ± 0.21
135 | FSVRNSSVILEHGVWLNCQG | 0.03 ± 0.97
136 | AVYGAECDCAWFTPYSVVAD | 0.19 ± 0.36
137 | SKCRL | 1.92 ± 0.62
138 | CFLSLVWQHGHWWEGLESRL | 0.714 ± 0.53
139 | LVCVFAWLFP | 7.41 ± 0.075
140 | SRVLSCEGWLK | -0.051 ± 0.9
141 | CYLLSRGYWSDMLGKWARGV | 0.131 ± 0.54
142 | GNSHMFIIAYSTYMLYTQTL | 0.845 ± 0.55
143 | FMPTKGGQSIIGLHPLLFML | -0.577 ± 0.58
144 | RWRFEVIKVTSFYMSFLKSA | 0.234 ± 0.47
145 | LGRFYTTCT | -0.981 ± 1.1
146 | FREVMTGSNYRPTC | 0.158 ± 0.64
147 | SGVICWYQKLAGINDALRWA | 1.21 ± 0.25
148 | FLSVLNFVRIIEKEVGRNRN | 1.79 ± 0.15
149 | SRLWVFD | 0.314 ± 0.79
150 | WVSFCNFDGKKFGAVRAHYY | -2 ± 0.97

Row | Substance | amyloid nucleation score
151 | RRQYFN | -0.855 ± 0.45
152 | GMRIGC | 0.023 ± 0.95
153 | SVGQRSRAEPDVKLCSGNLG | inactive
154 | RMKLTQLGYSRGNDSLSVLL | -0.813 ± 1.4
155 | PHRFVN | -0.188 ± 0.3
156 | SYGYSMLAGVWT | 0.057 ± 1.1
157 | HPMKCFQANQFINIYRNDVA | 7.136 ± 0.059
158 | SFVHYFKESLAVSSLIRLSN | -0.333 ± 1.1
159 | EERRMSWWFERGCKLAVELS | -0.614 ± 0.8
160 | ELTNTFTV | -0.335 ± 0.37
161 | TRMRLPP | -0.299 ± 0.48
162 | HYFPVIDQAICFDSFRPMPV | inactive
163 | MGIWSFDTVTRGAMTSVGDA | 0.252 ± 0.62
164 | NSAKLIARLWMMWDLATSDW | -0.89 ± 0.46
165 | QSDMGIIP | 0.153 ± 0.47
166 | VDSDLGLSERMTVKSTFAFC | 0.39 ± 0.56
167 | ICFCL | 7.772 ± 0.054
168 | SEWAMRITLATASSQTGGSE | 0.235 ± 0.32
169 | MSFSCWFLS | 0.445 ± 0.88
170 | LCRILGSSPVHNLWLWGHGY | -0.363 ± 1.4
171 | SSSLSKLVFWKYFCIDEGLS | 0.491 ± 0.53
172 | IGPGLSSR | -0.521 ± 0.63
173 | RSYGLAFGYFHNHVRSFARV | -0.735 ± 0.81
174 | FKASIYDISQNT | -0.459 ± 0.3
175 | TLLWGTLSAGHS | inactive
